Biological target: T1, CD55 antigen (coated on ELISA plate) (UniProt P08174 35-353, limits assumed)
T1 sequence (looked up): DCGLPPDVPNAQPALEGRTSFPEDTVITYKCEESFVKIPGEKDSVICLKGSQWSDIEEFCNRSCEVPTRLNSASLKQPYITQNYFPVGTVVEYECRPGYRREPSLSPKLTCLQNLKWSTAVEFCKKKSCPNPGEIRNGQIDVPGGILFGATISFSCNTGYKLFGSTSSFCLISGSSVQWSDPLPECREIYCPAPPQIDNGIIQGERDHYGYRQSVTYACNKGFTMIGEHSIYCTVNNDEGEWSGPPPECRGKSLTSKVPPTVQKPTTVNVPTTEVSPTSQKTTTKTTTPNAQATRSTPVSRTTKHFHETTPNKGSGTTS
Assay: ELISA on coated CD55 antigen (0.5 µg/well)
Experimental: In brief, CD55 antigen (0.5 μg/well) was coated in a volume of 50 μl/well. The primary antibody was incubated at 12 μg/ml (0.6 μg/well). Buffer was pH6.5 and for the dilution buffer used was High salt pH8.0.

B1: SAM-6 antibody (human IgM produced by hybridoma deposited as DSM ACC2903) (antibody, V domains shown)
VH: GGGVVQPGRSLRLSCAASGFTFSSYAMHWVRQAPGKGLEWVAVISYDGSNKYYADSVKGRFTISRDNSKNTLYLQMNSLRAEDTAVYYCARDRLAVAGRPFDYWGQGTLVTVSS
VL: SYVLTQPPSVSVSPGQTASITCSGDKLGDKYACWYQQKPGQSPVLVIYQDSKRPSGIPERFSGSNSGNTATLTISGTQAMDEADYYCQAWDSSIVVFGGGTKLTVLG
notes: Human IgM, lambda light chain, purified from hybridoma supernatant; CDR-H3 was not observed; also called SAM-6 HAB; SAM-6 HAB IgM
- binding result: no binding (tested: 12 µg/ml)

From patent publication US20110207917A1 (PATRYS, published 2011)
